Assay [1] deals with T1, recombinant gp120 of HIV-1 strain IIIb (HIV-1 strain IIIb, UniProt P04578 33-511). Put plainly: cell-based or functional assay.
The target in assay [2] is T1, recombinant gp120 of HIV-1 strain IIIb. Put plainly: SPR BIAcore, gp120 on chip.
Source text: In the assay, the gp120 glycoprotein, isolated from both MN (AgMed, Cambridge, Mass.) and IIIb (American Bio-Technologies) strains of HIV-1 were coated onto gold chips. […] As the mass of the gold chips increases due to the binding of the Fabs to the ligand, the refractive index of the chips increases indicating a coordinate increase in the increase of the mass. Measurements of the "on" rate are made in addition to the "off" rates, the latter of which occurs as the Fabs begin to dissociate from the ligand and the mass coordinately decreases, thereby allowing a measurement of the change of the refractive index. Briefly, the sensor chip was activated for immobilization with N-hydroxysuccinimide an N-ethyl-N'-(3-diethyl aminopropyl) carbodiimide. The proteins, MN-derived or IIIb-derived gp120, were coupled to the surface by injection of 50 ul of a 50 ug/ml sample. Excess activated esters were quenched with 15 ul ethanolamine, 1 M pH 8.5. Typically, 4000 resonance units were immobilized. Binding of Fab fragments to immobilized gp120 was studied by injection of Fab in a range of concentrations (0.5 to 10 ug/ml) at a flow rate of 5 ul/minute. The association was monitored as the increase in resonance units per unit time. Dissociation measurements were acquired following the end of the association phase but with a flow rate of 50 ul/minute. […]
The target of assay [3] is gp120 glycoprotein of HIV-1 strain MN (HIV-1 strain MN, UniProt P05877 32-513, limits assumed). Nature of the assay: cell-based or functional assay.
Assay [4] has as its target T1, recombinant gp120 of HIV-1 strain IIIb. Nature of the assay: SPR BIAcore, gp120 on chip. The source holds these as a separate data set. Background: SPR reads the build-up and loss of mass on a sensor chip optically.
The target is the same in assay [5]. Nature of the assay: SPR BIAcore, gp120 on chip. The source holds these as a separate data set.
Source text: (§1) As the mass of the gold chips increases due to the binding of the Fabs to the ligand, the refractive index of the chips increases indicating a coordinate increase in the increase of the mass. Measurements of the "on" rate are made in addition to the "off" rates, the latter of which occurs as the Fabs begin to dissociate from the ligand and the mass coordinately decreases, thereby allowing a measurement of the change of the refractive index. Briefly, the sensor chip was activated for immobilization with N-hydroxysuccinimide an N-ethyl-N'-(3-diethyl aminopropyl) carbodiimide. The proteins, MN-derived or IIIb-derived gp120, were coupled to the surface by injection of 50 ul of a 50 ug/ml sample. Excess activated esters were quenched with 15 ul ethanolamine, 1 M pH 8.5. Typically, 4000 resonance units were immobilized. Binding of Fab fragments to immobilized gp120 was studied by injection of Fab in a range of concentrations (0.5 to 10 ug/ml) at a flow rate of 5 ul/minute. The association was monitored as the increase in resonance units per unit time. Dissociation measurements were acquired following the end of the association phase but with a flow rate of 50 ul/minute. The binding surface was regenerated with HCl, 1M NaCl, pH 3 and remained active for 20–40 measurements. […] Equilibrium association and dissociation constants were deduced from the rate constants.
Assay [6] has the same target. Put plainly: SPR BIAcore, gp120 on chip. This is another data set of the same source.
Assay [7] has the same target. Put plainly: SPR BIAcore, gp120 on chip (summary table).
For assay [8] the target is unchanged. Put plainly: calculated as ln2/Koff from SPR.
Procedure: (§2) The soluble composite Fabs were then analyzed for binding affinity to gp120 strain IIIB.
In addition, the half-life of the binding of the gp120-reactive Fabs to gp120 can be obtained by dividing the natural log ($\ln_2$) with the $Koff$ rate constant, thereby obtaining a further parameter of the nature of the interaction.
The target is the same in assay [9]. Put plainly: SPR BIAcore, gp120 on chip. The source holds these as a separate data set.
Source text: as §1, §2
The target is the same in assay [10]. Put plainly: SPR BIAcore, gp120 on chip. This is another data set of the same source.
Procedure: Briefly, the sensor chip was activated for immobilization with N-hydroxysuccinimide an N-ethyl-N'-(3-diethyl aminopropyl) carbodiimide. The proteins, MN-derived or IIIb-derived gp120, were coupled to the surface by injection of 50 ul of a 50 ug/ml sample. Excess activated esters were quenched with 15 ul ethanolamine, 1 M pH 8.5. Typically, 4000 resonance units were immobilized. Binding of Fab fragments to immobilized gp120 was studied by injection of Fab in a range of concentrations (0.5 to 10 ug/ml) at a flow rate of 5 ul/minute. The association was monitored as the increase in resonance units per unit time. Dissociation measurements were acquired following the end of the association phase but with a flow rate of 50 ul/minute. The binding surface was regenerated with HCl, 1M NaCl, pH 3 and remained active for 20–40 measurements. […] Equilibrium association and dissociation constants were deduced from the rate constants.
For assay [11] the target is unchanged. Nature of the assay: SPR BIAcore, gp120 on chip. This is another data set of the same source.
Source text: as §1
The soluble A–D series Fabs were then analyzed for binding affinity to gp120 strain IIIB.

Substitutions are numbered along the chain they refer to. Like-named read-outs stand apart in the source and are kept apart here.

B1: Fab 3b3 (Fab, V domains shown)
VH: LEQSGAEVKKPGASVKVSCQASGYRFSNFTVHWVRQAPGQRFEWMGWINPYNGNKEFSAKFQDRVTFTADTSANTAYMELRSLRSADTAVYYCARVGEWGWDDSPQDNYYMDVWGKGTTVIVSS
VL: ELTQSPGTLSLSPGERATFSCRSSHSIRSRRVAWYQHKPGQAPRLVIHGVSNRASGISDRFSGSGSGTDFTLTITRVEPEDFALYYCQVYGASSYTFGQGTKLERKR
As for B1, in assay [1], the “IC50 (M), syncytium neutralization assay, HIV-1 IIIb” value turned out to be 9.4e-10 M and the “Neutralization titer (ng/ml), syncytium assay, HIV-1 IIIb” value amounted to 47 ng/mL. Also, the Kd in assay [2] was 0.77 nM. For the same molecule, in [3], the “IC50 (M^-1), syncytium neutralization assay, HIV-1 MN on CEM-SS cells” value was 9.02e+09 M⁻¹ and the “Neutralization Titer (ng/ml), syncytium assay, HIV-1 MN” value was found to be 5.5 ng/mL. For the same molecule, the Ka in assay [4] was 1.3e+09 M⁻¹.

B2: Fab H4L3-3 (Fab, V domains shown)
VH: B1 VH
VL: ELTQSPGTLSLSPGERATFSCRSSHSIRSRRVAWYQHKPGQAPRLVIHGVSNRASGISDRFSGSGSGTDFTLTITRVEPEDFALYYCQVYGGSAYTFGQGTKLERK
Consider B2, for which, in [5], the “Fold Increase of Mutant Kd Compared to MT4 Kd” value (“Fold Increase” for short) is 1.9 fold and the Kd was 3.31 nM.

B3: composite Fab H31/L42-1 (Fab, V domains shown)
VH: B1 VH with N28H, M45H, D102E, D103M, S104F, P105R, Q106Y
VL: B1 VL with S26Q, I27L, R28D, S29G, R30S, V89Q, A92W, S93P, S94F
notes: also called Fab of plasmid pPho-H31/L42-1 (ATCC 69691)
In the case of B3, in assay [6], the dissociation rate constant (koff) was found to be 1.75e-07 s⁻¹ and the kon amounted to 67300 M⁻¹ s⁻¹. For the same molecule, the equilibrium dissociation constant (Kd) in [7] came to 0.00259 nM. For the same molecule, the half-life of binding in assay [8] is 44.5 days. Also, in [9], the “Fold Increase” value was 2430 fold, the Ka was 3.85e+11 M⁻¹ and the equilibrium dissociation constant (Kd) stood at 0.00259 nM.

B4: Fab H4L3-2 (Fab, V domains shown)
VH: B1 VH
VL: B1 VL with V89Q, A92W, S93P, S94F
As to B4, in assay [5], the “Fold Increase” value was found to be 45.3 fold and the Kd stood at 0.138 nM. In assay [7], the Kd is 0.138 nM.

B5: Fab H4H1-5 (Fab, V domains shown)
VH: B1 VH with N28H, V31I, H32M, E98P, W99Y, G100S
VL: B1 VL
Take B5: in assay [10], the “Fold Increase” value turned out to be 2.57 fold and the dissociation constant (Kd) came out at 2.45 nM.

B6: Fab B (Fab, V domains shown)
VH: B1 VH
VL: B1 VL with S26T, I27V, R28Y, S29R, R30D
Turning to B6, in assay [11], the “Fold Increase” value came to 5.7 fold and the Kd amounted to 1.1 nM.

B7: Fab H4H1-3 (Fab, V domains shown)
VH: B1 VH with N28H, V31L, E98P, W99Y, G100S
VL: B1 VL
As for B7, in [10], the “Fold Increase” value was 3.15 fold and the Kd was 2 nM.

B8: Fab D (Fab, V domains shown)
VH: B1 VH
VL: B1 VL with S26Q, I27L, R28D, S29G, R30S
B8: in assay [11], the “Fold Increase” value stood at 28.6 fold and the Kd came to 0.22 nM. Moreover, the equilibrium dissociation constant (Kd) in assay [7] was found to be 0.22 nM.

B9: Fab 3b1 (Fab, V domains shown)
VH: B1 VH with V31L, H32M, E98Q, G100N
VL: B1 VL
As for B9, in assay [1], the “IC50 (M), syncytium neutralization assay, HIV-1 IIIb” value was 4.4e-10 M and the “Neutralization titer (ng/ml), syncytium assay, HIV-1 IIIb” value was determined as 22 ng/mL. In [3], the “IC50 (M^-1), syncytium neutralization assay, HIV-1 MN on CEM-SS cells” value turned out to be 5.42e+09 M⁻¹ and the “Neutralization Titer (ng/ml), syncytium assay, HIV-1 MN” value is 9.2 ng/mL.

B10: Fab H4L3-4 (Fab, V domains shown)
VH: B1 VH
VL: B1 VL with V89K, A92G, S93G, S94T
For B10, in [5], the “Fold Increase” value is 25.7 fold and the Kd worked out at 0.243 nM. Moreover, the Kd in [7] is 0.243 nM.

B11: Fab A (Fab, V domains shown)
VH: B1 VH
VL: B1 VL with S26K, I27E, R28F, S29G
Regarding B11, in assay [11], the “Fold Increase” value was found to be 1.3 fold and the Kd was 4.7 nM.

B12: Fab H4H1-1 (Fab, V domains shown)
VH: B1 VH with N28H, E98P, W99Y, G100S
VL: B1 VL
Regarding B12, in [10], the “Fold Increase” value came to 3.7 fold and the Kd was determined as 1.7 nM.

In general, Kd refers to a measure of binding affinity in units of concentration. By koff is commonly meant the first-order rate constant of dissociation. By kon is commonly meant the rate constant with which the complex forms.
